{
  "source": "patent US10858423B2",
  "about": "“Composition for the treatment of IGF-1R expressing cancer” (PIERRE FABRE MEDICAMENT, priority 2015, dated 2020)",
  "key": {"IGF-1R on MCF-7 cells": {"biological_target": "T1, IGF-1R on MCF-7 cells (Homo sapiens, UniProt P08069)", "T1 construct": "host or cells: MCF-7", "assay": "IGF-1R internalization by FACS on MCF-7 cells", "assay_type": "cell-based", "conditions": "Table 14c; MCF-7, 10 μg/ml, 4 h", "protocol": "(§1) MCF-7 cells were incubated with 10 μg/ml of chimeric antibodies at 4° C. for 20 min. Then, cells were washed and incubated at 4° C. or 37° C. for 4 h. The quantity of cell-surface bound antibody was determined using a secondary antibody. The ΔMFI defined as the difference between MFI measured at 4° C. and MFI measured at 37° C. after a 4 hour incubation time corresponded to the quantity of internalized second IGF-1R antibodies Ab. The percentage of internalization at 10 μg/ml of Ab were calculated as followed 100*(MFI at 4° C.-MFI at 37° C.)/MFI at 4° C. and presented in Table 12.\nas §1, with “The capacity of the mAb hz208F2 H026/L024 to be internalized was assessed by flow cytometry. MCF-7” for “MCF-7”, “of” for “of chimeric”, “Then, cells were washed and incubated at 4° C. or 37° C. for 4 h.” left out, “internalized” for “internalized second IGF-1R antibodies”, “14a.” for “12.”\nMCF-7 cells were incubated with 10 μg/ml of humanized antibodies at 4° C. for 20 min. […] The quantity of cell-surface bound antibody was determined using a secondary antibody on a FacsCalibur Flow cytometer (Becton Dickinson). […]"}, "soluble form of h-IGF1R": {"biological_target": "T2, soluble form of h-IGF1R (Homo sapiens, UniProt P08069)", "T2 construct": "a heterotetramer composed by two alpha chains and two extracellular domains of the beta chains; made in house", "assay": "Biacore binding competition on captured soluble h-IGF1R", "conditions": "antibodies 50 μg/ml, 25° C.", "source_text": "The experiment was run on a Biacore X100 device based on the Surface Plasmon Resonance technology. A CM5 sensor chip was activated with a mouse anti-polyHistidine IgG1 monoclonal antibody chemically linked to the carboxymethyldextran matrix using the amine coupling chemistry. Typically, 12451 RU and 12257 RU of antibodies were grafted on the flowcell 1 (FC1) and flowcell 2 (FC2) respectively. The classical HBS-EP+ buffer was used as the running buffer. This buffer was also used for the preparation of the solutions of the proteins. The experiment was carried at 25° C. and at a flow rate of […].\nThe soluble form of IGF1R produced in house is a heterotetramer composed by two alpha chains and two extracellular domains of the beta chains completed by a 6 Histidine sequence at their C-terminal end. The protein is injected during one minute on the FC2 at the concentration of 30 μg/ml (about 80 nM). The antibodies are injected at the concentration of 50 μg/ml (about 330 nM). Either a first antibody solution (FIGS. 35B and 35D) or the running buffer (FIGS. 35A and 35C) is injected during 90 s on both flowcells. A second antibody solution is then injected on both flow cells. The absence of binding of the second antibody after the binding of the first antibody is the proof that both antibodies bind to a nearby site on the antigen (FIG. 35B) At the opposite the binding of the second antibody after the binding of the first antibody is the proof that the binding site of the second antibody is out and away of the binding site of the first antibody (FIG. 35D). At the end of each cycle, the sensor chip surface is regenerated by an injection of a Glycine, HCl 10 mM pH 1.5 buffer during 30 s.\nThe levels of binding of the Ac2 (arrows) without (FIGS. 35A and 35B) or with an Ac1 (FIGS. 35C and 35D) were recorded 20 s after the end of the injection. The data are represented on the histogram graph in FIG. 36."}},
  "data": [
    {"molecule": "hz208F2 H077/L018: humanized 208F2; VH SEQ ID No. 57, VL SEQ ID No. 34 (antibody, V domains shown, hz208F2 heavy chain H077, VH; hz208F2 Light chain L018, VL) VH: QVQLVQSGAEVKKPGASVKVSCKASGYTFTSYYIHWVRQAPGQGLEWMGWIWPGDGSTKYAQKFQGRVTMTRDTSTSTVYMELSSLRSEDTAVYFCASPMITPNYAMDYWGQGTLVTVSS VL: DIQMTQSPSSLSASVGDRVTITCRASQDISKYLNWYQQKPGKAPKLLIYYTSRLQSGVPSRFSGRGSGTDYSLTISSLQPEDFATYFCQQGSTLPYTFGGGTKVEIK", "values": [
      {"measurement": "% Internalization", "setting": "IGF-1R on MCF-7 cells", "value": 88, "unit": "%"},
      {"measurement": "ΔMFI", "setting": "IGF-1R on MCF-7 cells", "value": 468},
      {"measurement": "binding as Ac2 after Hz208F2-4 injected as Ac1", "setting": "soluble form of h-IGF1R", "value": "completely blocks the binding of itself"}
    ]}
  ]
}
